The text below walks through data of publication PMC9642902 (2022).

Test in all cases: ITC
For orientation: ITC needs no label: the signal is the heat of the interaction.

The target in assay [1] is MjATG8-I, recombinant protein for ITC (Mirabilis jalapa).
Assay [2] deals with MjATG8-III, recombinant protein for ITC (Mirabilis jalapa).
Another assay deals with PmPexRD54 AIM peptide (Phytophthora mirabilis).

In general, Kd refers to a measure of binding affinity in units of concentration. On to KPLDFDWEIV [PiPexRD54 AIM peptide], for which the equilibrium dissociation constant (Kd) in assay [1] worked out at 0.21 µM; in assay [2], 0.12 µM.

B1: potato ATG8-2.2 (StATG8-2.2), protein for ITC (natural protein)
chain: MAKSSFKLEHPLERRQAEAARIREKYPDRIPVIVEKAERSDIPDIDKKKYLVPADLTVGQFVYVVRKRIKLSAEKAIFIFVKNILPPTAAMMSAIYEEHKDEDGFLYMTYSGENTFG
Turning to B1, the affinity with PmPexRD54 AIM peptide, expressed as Kd, was 4200 µM.
